Measurements from FireProtDB (doi:10.1021/bi00052a024).

Conditions: Katsuwonus pelamis, pH 7.5, 25 °C, GdnHCl, CD, Tris 20 mM, NaCl 40 mM, reversible: yes

Sequence of Cytochrome c K74M, P00025 (P00025 whole entry K74M): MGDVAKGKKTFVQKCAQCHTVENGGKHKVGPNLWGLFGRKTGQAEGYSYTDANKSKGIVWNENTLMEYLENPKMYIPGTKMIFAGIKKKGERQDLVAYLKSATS
Sequence of Cytochrome c K74Y, P00025 (P00025 whole entry K74Y): as the sequence (P00025 whole entry K74M) above, with M74Y counted along it
Sequence of Cytochrome c K74W, P00025 (P00025 whole entry K74W): as the sequence (P00025 whole entry K74M) above, with M74W counted along it
Sequence of Cytochrome c wild type, P00025 (P00025 whole entry): as the sequence (P00025 whole entry K74M) above, with M74K counted along it
Sequence of Cytochrome c K74F, P00025 (P00025 whole entry K74F): as the sequence (P00025 whole entry K74M) above, with M74F counted along it

Substance | ddG of mutation (higher = less stable) (structure 1CYC) | denaturant m value (structure 1CYC) | denaturant midpoint (higher = more stable) (structure 1CYC) | unfolding free energy (structure 1CYC) | denaturant m value | denaturant midpoint (higher = more stable) | unfolding free energy
Cytochrome c K74F, P00025 | 1.15 kcal/mol | 4.44 kcal/mol/M | 1 M | 4.51 kcal/mol |  |  | 
Cytochrome c K74M, P00025 | 1 kcal/mol | 4.43 kcal/mol/M | 1 M | 4.66 kcal/mol |  |  | 
Cytochrome c K74W, P00025 | 1.43 kcal/mol | 4.16 kcal/mol/M | 1 M | 4.23 kcal/mol |  |  | 
Cytochrome c K74Y, P00025 | 1.05 kcal/mol | 4.62 kcal/mol/M | 1 M | 4.61 kcal/mol |  |  | 
Cytochrome c wild type, P00025 |  |  |  |  | 4.87 kcal/mol/M | 1.16 M | 5.66 kcal/mol
